Assay results from article PMC10024175, “Structuring supramolecular hyaluronan hydrogels via peptide self-assembly for modulating the cell microenvironment” (Materials Today Bio, 2023).

B1: (KI)3K peptide (peptide)
peptide: Ac-KIKIKIK-NH2
notes: rationally designed cationic amphipathic peptide; Synthesised on a rink amide MBHA resin, so the C-terminus is probably an amide (surmised); source: synthetic peptide (Fmoc solid-phase synthesis, purified by preparative RP-HPLC)
B2: (KI)4K peptide (peptide)
peptide: Ac-KIKIKIKIK-NH2
notes: as for B1
B3: (KI)6K peptide (peptide)
peptide: Ac-KIKIKIKIKIKIK-NH2
notes: as for B1
B4: (KI)2K peptide (peptide)
peptide: Ac-KIKIK-NH2
notes: as for B1
B5: (KI)5K peptide (peptide)
peptide: Ac-KIKIKIKIKIK-NH2
notes: as for B1

What was measured:
[1] = target: the molecule itself; experiment: transmission electron microscopy; 1 mM peptide in deionized water, pH 11 (NH4OH), negative staining with uranyl acetate, dried on the grid
[2] = target: the molecule itself; experiment: FTIR spectroscopy; 10 mM peptide in D2O, pH 7, NaCl 0, 50, 100, 200, 300 and 400 mM; beta-sheet formation read as self-assembly
[3] = target: the molecule itself; experiment: zeta potential; 1 mM peptide in ultrapure water, neutral pH; self-association of the peptide

Row | Protein | binding result [1] | other results
1 | B1 | binds | –
2 | B2 | binds | –
3 | B3 | – | binding result [2]: binds
4 | B4 | binds | –
5 | B5 | – | binding result [3]: binds
